Data published in patent US20250304644A1, “PEPTIDES TRIPLE AGONISTS OF GIP, GLP-1 AND GLP-2” (BAINAN BIOTECH APS, priority 2021, published 2025).
*1 amine or outer side, *2 acyl side, *3 side chain or, on linkers, in order; H or OH if unused. Where no end group is shown, it is not given here. Side-chain parts run from the residue outwards. [ ]: non-standard residue; d: D form. The star is where a group is joined. C18 diacid = O=C(O)CCCCCCCCCCCCCCCCC(=O)*; γGlu = O=C(O)[C@H](CCC(=O)[*:2])N[*:1]; AEEA = NCCOCCOCC(=O)O; Aib = CC(C)(N)C(=O)O

B1: Compound 27 (peptide)
peptide: HADGTFTSDYST[Aib]LDKLAARDFINWLIQTKGKKNDWKHNITQK([AEEA-AEEA-γGlu-C18 diacid])-OH
B2: Compound 24 (peptide)
peptide: HADGTFTSDYSTILDKLAARDFINWLIQTKGKK([AEEA-AEEA-γGlu-C18 diacid])NDWKHNITQ-OH

Legend:
Assay in all cases: cell-based or functional assay
[1] = biological target: T1, human GIPR (glucose-dependent insulinotropic polypeptide receptor) (human, UniProt P48546 22-466)
T1 sequence (looked up): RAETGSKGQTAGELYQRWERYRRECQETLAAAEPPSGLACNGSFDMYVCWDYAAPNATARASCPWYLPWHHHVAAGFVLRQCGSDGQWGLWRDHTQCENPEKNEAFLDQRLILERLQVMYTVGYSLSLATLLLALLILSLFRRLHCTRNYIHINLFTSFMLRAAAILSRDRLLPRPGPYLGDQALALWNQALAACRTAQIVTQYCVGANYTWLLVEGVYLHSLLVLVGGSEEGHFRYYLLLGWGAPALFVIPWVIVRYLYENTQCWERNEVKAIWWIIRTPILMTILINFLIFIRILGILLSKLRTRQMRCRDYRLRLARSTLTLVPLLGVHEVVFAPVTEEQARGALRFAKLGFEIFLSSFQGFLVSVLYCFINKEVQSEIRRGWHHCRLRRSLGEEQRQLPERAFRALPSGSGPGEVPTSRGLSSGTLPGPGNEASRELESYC

[2] = biological target: T2, human GLP-2R (glucagon-like peptide-2 receptor) (human, UniProt O95838 1-553)
T2 sequence (looked up): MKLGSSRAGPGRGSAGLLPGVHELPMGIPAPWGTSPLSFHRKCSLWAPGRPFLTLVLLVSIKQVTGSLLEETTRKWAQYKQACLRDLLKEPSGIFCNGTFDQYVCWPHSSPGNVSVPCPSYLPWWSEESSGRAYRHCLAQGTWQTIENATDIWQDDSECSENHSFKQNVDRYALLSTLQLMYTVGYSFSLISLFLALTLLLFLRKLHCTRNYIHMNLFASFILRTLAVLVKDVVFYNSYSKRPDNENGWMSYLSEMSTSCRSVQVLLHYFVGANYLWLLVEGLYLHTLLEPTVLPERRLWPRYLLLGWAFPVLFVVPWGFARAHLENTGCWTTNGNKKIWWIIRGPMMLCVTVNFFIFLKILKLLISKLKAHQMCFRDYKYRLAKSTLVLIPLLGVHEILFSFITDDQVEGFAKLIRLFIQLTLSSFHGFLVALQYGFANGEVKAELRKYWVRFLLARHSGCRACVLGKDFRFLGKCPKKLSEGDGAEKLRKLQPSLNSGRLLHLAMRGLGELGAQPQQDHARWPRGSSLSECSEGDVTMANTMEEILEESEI

[3] = biological target: human GLP-1R (glucagon-like peptide-1 receptor) (human, UniProt P43220 24-463)
[4] = biological target: T3, Human N-terminally SNAP-tagged GIPR (human, UniProt P48546 22-466, SNAP tag labeled with Tag-Lite SNAP-Lumi4-Tb)
T3 sequence (looked up): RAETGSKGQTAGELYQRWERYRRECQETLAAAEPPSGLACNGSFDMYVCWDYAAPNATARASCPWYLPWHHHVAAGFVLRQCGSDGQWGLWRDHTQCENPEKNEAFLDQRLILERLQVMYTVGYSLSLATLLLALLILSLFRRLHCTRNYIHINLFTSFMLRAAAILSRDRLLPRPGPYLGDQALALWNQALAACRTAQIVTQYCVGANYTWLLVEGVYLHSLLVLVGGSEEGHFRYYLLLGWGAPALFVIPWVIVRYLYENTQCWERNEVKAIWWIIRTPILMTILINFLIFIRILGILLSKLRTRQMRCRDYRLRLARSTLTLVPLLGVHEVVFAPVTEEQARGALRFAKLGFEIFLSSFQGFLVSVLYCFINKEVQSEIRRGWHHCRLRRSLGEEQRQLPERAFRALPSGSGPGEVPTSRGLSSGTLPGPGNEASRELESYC

| Binder | EC50 (nM) GIPR [1] [nM] | Efficacy GIPR [1] | pEC50 GIPR [1] | EC50 (nM) GLP-2R [2] [nM] | Efficacy GLP-2R [2] | logEC50 GLP-2R [2] | EC50 (nM) GLP-1R [3] [nM] | Efficacy GLP-1R [3] | logEC50 GLP-1R [3] | Absolute hGIPR internalization (AUC) [4] [AUC] | Relative hGIPR internalization (%) [4] [%] |
| --- | --- | --- | --- | --- | --- | --- | --- | --- | --- | --- | --- |
| B1 | 0.562 | 124 | 9.3 | 3.2 | 85 | 8.5 | 0.05 | 115 | 10.3 | 9 | 24 |
| B2 | 0.398 | 96 | 9.4 |  |  |  | 0.05 | 113 | 10.3 | 15 | 41 |
